Sequences and labels used below:
T1: β-catenin (UniProt P35222 134-665, limits assumed, biotinylated in the SPR and plate assays)
T1 sequence (looked up): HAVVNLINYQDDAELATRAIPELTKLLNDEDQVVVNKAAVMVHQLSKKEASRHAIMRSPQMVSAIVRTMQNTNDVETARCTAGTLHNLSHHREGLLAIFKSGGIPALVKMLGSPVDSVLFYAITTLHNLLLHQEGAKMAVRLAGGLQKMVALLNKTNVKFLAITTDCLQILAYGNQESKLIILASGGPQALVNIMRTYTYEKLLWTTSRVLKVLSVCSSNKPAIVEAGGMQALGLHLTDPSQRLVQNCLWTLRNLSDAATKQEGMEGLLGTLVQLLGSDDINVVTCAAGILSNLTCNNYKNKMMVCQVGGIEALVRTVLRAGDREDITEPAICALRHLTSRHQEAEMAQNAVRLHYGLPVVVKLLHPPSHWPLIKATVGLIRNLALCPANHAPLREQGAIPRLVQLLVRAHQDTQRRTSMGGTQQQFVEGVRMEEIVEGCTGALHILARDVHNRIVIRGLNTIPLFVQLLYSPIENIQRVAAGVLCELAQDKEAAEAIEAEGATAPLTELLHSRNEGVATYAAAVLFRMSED

B1: SEQ ID NO: 137 (peptide)
peptide: H-MWILI[dT]FWG-OH
B2: SEQ ID NO: 212 (peptide)
peptide: H-MWFLIAAWG-OH
B3: SEQ ID NO: 191 (peptide)
peptide: MWFLICAWD
HELM: PEPTIDE1{[O=C(CCCN[*:1])[*:2]].M.W.F.L.I.C.A.W.D}$PEPTIDE1,PEPTIDE1,1:R1-10:R3$$$V2.0
SMILES: CC[C@H](C)[C@@H]1NC(=O)[C@H](CC(C)C)NC(=O)[C@H](Cc2ccccc2)NC(=O)[C@H](Cc2c[nH]c3ccccc23)NC(=O)[C@H](CCSC)NC(=O)CCCNC(=O)C[C@@H](C(=O)O)NC(=O)[C@H](Cc2c[nH]c3ccccc23)NC(=O)[C@H](C)NC(=O)[C@H](CS)NC1=O
B4: SEQ ID NO: 198 (peptide)
peptide: Ac-MWFLICFWG-OH
B5: SEQ ID NO: 185 (peptide)
peptide: KWFLICFWE
HELM: PEPTIDE1{[ac].K.W.F.L.I.C.F.W.E}$PEPTIDE1,PEPTIDE1,2:R3-10:R3$$$V2.0
SMILES: CC[C@H](C)[C@@H]1NC(=O)[C@H](CC(C)C)NC(=O)[C@H](Cc2ccccc2)NC(=O)[C@H](Cc2c[nH]c3ccccc23)NC(=O)[C@@H](NC(C)=O)CCCCNC(=O)CC[C@@H](C(=O)O)NC(=O)[C@H](Cc2c[nH]c3ccccc23)NC(=O)[C@H](Cc2ccccc2)NC(=O)[C@H](CS)NC1=O
B6: SEQ ID NO: 207 (peptide)
peptide: KWFLICAWD
modifications: cyclo-H2N-K(G*)WFLICAWD*-COOH
B7: SEQ ID NO: 164 (peptide)
peptide: LWFLICFWG
HELM: PEPTIDE1{[Nle].W.F.L.I.C.F.W.G}$$$$V2.0
SMILES: CCCC[C@H](N)C(=O)N[C@@H](Cc1c[nH]c2ccccc12)C(=O)N[C@@H](Cc1ccccc1)C(=O)N[C@@H](CC(C)C)C(=O)N[C@H](C(=O)N[C@@H](CS)C(=O)N[C@@H](Cc1ccccc1)C(=O)N[C@@H](Cc1c[nH]c2ccccc12)C(=O)NCC(=O)O)[C@@H](C)CC
B8: SEQ ID NO: 209 (peptide)
peptide: H-AWFLISFWG-OH
B9: SEQ ID NO: 165 (peptide)
peptide: Ac-MWILISFWG-OH
B10: SEQ ID NO: 204 (peptide)
peptide: KWGLISAWD
HELM: PEPTIDE1{K.W.[O=C([C@@H](N[*:1])C1CCCCC1)[*:2]].L.I.S.A.W.D}$PEPTIDE1,PEPTIDE1,1:R3-9:R3$$$V2.0
SMILES: CC[C@H](C)[C@@H]1NC(=O)[C@H](CC(C)C)NC(=O)[C@H](C2CCCCC2)NC(=O)[C@H](Cc2c[nH]c3ccccc23)NC(=O)[C@@H](N)CCCCNC(=O)C[C@@H](C(=O)O)NC(=O)[C@H](Cc2c[nH]c3ccccc23)NC(=O)[C@H](C)NC(=O)[C@H](CO)NC1=O
B11: SEQ ID NO: 149 (peptide)
peptide: H-MWFLIQFYG-OH
B12: SEQ ID NO: 184 (peptide)
peptide: KWILISAWE
HELM: PEPTIDE1{K.W.I.L.I.S.A.W.E}$PEPTIDE1,PEPTIDE1,1:R3-9:R3$$$V2.0
SMILES: CC[C@H](C)[C@@H]1NC(=O)[C@H](CC(C)C)NC(=O)[C@H]([C@@H](C)CC)NC(=O)[C@H](Cc2c[nH]c3ccccc23)NC(=O)[C@@H](N)CCCCNC(=O)CC[C@@H](C(=O)O)NC(=O)[C@H](Cc2c[nH]c3ccccc23)NC(=O)[C@H](C)NC(=O)[C@H](CO)NC1=O
B13: SEQ ID NO: 151 (peptide)
peptide: H-MWFLIKFYG-OH
B14: SEQ ID NO: 142 (peptide)
peptide: H-DWFLICFWG-OH
B15: SEQ ID NO: 199 (peptide)
peptide: KWFLISFWE
HELM: PEPTIDE1{[ac].K.W.F.L.I.S.F.W.E}$PEPTIDE1,PEPTIDE1,2:R3-10:R3$$$V2.0
SMILES: CC[C@H](C)[C@@H]1NC(=O)[C@H](CC(C)C)NC(=O)[C@H](Cc2ccccc2)NC(=O)[C@H](Cc2c[nH]c3ccccc23)NC(=O)[C@@H](NC(C)=O)CCCCNC(=O)CC[C@@H](C(=O)O)NC(=O)[C@H](Cc2c[nH]c3ccccc23)NC(=O)[C@H](Cc2ccccc2)NC(=O)[C@H](CO)NC1=O
B16: SEQ ID NO: 148 (peptide)
peptide: H-MWFLIC[2Pal]WG-OH
B17: SEQ ID NO: 214 (peptide)
peptide: H-MWFLI[Cys(Me)]FWG-OH
B18: SEQ ID NO: 182 (peptide)
peptide: KWILISFWE
HELM: PEPTIDE1{K.W.I.L.I.S.F.W.E}$PEPTIDE1,PEPTIDE1,1:R3-9:R3$$$V2.0
SMILES: CC[C@H](C)[C@@H]1NC(=O)[C@H](CC(C)C)NC(=O)[C@H]([C@@H](C)CC)NC(=O)[C@H](Cc2c[nH]c3ccccc23)NC(=O)[C@@H](N)CCCCNC(=O)CC[C@@H](C(=O)O)NC(=O)[C@H](Cc2c[nH]c3ccccc23)NC(=O)[C@H](Cc2ccccc2)NC(=O)[C@H](CO)NC1=O
B19: SEQ ID NO: 188 (peptide)
peptide: KWILISAWE
HELM: PEPTIDE1{[ac].K.W.I.L.I.S.A.W.E}$PEPTIDE1,PEPTIDE1,2:R3-10:R3$$$V2.0
SMILES: CC[C@H](C)[C@@H]1NC(=O)[C@H](CC(C)C)NC(=O)[C@H]([C@@H](C)CC)NC(=O)[C@H](Cc2c[nH]c3ccccc23)NC(=O)[C@@H](NC(C)=O)CCCCNC(=O)CC[C@@H](C(=O)O)NC(=O)[C@H](Cc2c[nH]c3ccccc23)NC(=O)[C@H](C)NC(=O)[C@H](CO)NC1=O

Values joined by “and” are separate entries in the source; they are usually repeats but may differ in a detail not shown here. Equal values may be shown once. *1 amine or outer side, *2 acyl side, *3 side chain or, on linkers, in order; H or OH if unused. [ ]: non-standard residue; d: D form. Cys(Me) = CSC[C@H](N[*:1])C(=O)[*:2]; 2Pal = N[C@@H](Cc1ccccn1)C(=O)O

The target of one experiment is T1, β-catenin. As to the kind of experiment: cell-based or functional assay.
Regarding B1, the “Wnt Reporter EC50” value is > 15 µM and ≤ 22.5 µM.

For B2, the “Wnt Reporter EC50” value is no more than 7.5 µM.

As for B3, the “Wnt Reporter EC50” value was > 7.5 µM and ≤ 15 µM.

Turning to B4, the “Wnt Reporter EC50” value is no more than 7.5 µM.

B5: the “Wnt Reporter EC50” value was > 22.5 µM and ≤ 30 µM.

Consider B6, for which the “Wnt Reporter EC50” value is no more than 7.5 µM.

As to B7, the “Wnt Reporter EC50” value was no more than 7.5 µM.

Consider B8, for which the “Wnt Reporter EC50” value is no more than 7.5 µM.

As to B9, the “Wnt Reporter EC50” value is no more than 7.5 µM.

With B10, the “Wnt Reporter EC50” value is no more than 7.5 µM.

B11: the “Wnt Reporter EC50” value was > 7.5 µM and ≤ 15 µM.

Turning to B12, the “Wnt Reporter EC50” value was no more than 7.5 µM.

B13: the “Wnt Reporter EC50” value was > 15 µM and ≤ 22.5 µM.

On to B14, for which the “Wnt Reporter EC50” value is no more than 7.5 µM.

In the case of B15, the “Wnt Reporter EC50” value is no more than 7.5 µM.

With B16, the “Wnt Reporter EC50” value is > 7.5 µM and ≤ 15 µM.

On to B17, for which the “Wnt Reporter EC50” value is no more than 7.5 µM.

For B18, the “Wnt Reporter EC50” value was > 22.5 µM and ≤ 30 µM.

As for B19, the “Wnt Reporter EC50” value was no more than 7.5 µM.

The next experiment has as its target T1, β-catenin. As to the kind of experiment: competitive FP. Summed up:
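Competitive fluorescence polarization with inhibitor peptide serially diluted from 10 nM to 30 uM; polarization read at 470 nm excitation, 520 nm emission. Experiments performed three times.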
With B1, the equilibrium dissociation constant (Kd) was > 0.4 µM and ≤ 1 µM.

With B2, the Kd is > 0.4 µM and ≤ 1 µM.

For B3, the equilibrium dissociation constant (Kd) was > 0.4 µM and ≤ 1 µM.

B4: the dissociation constant (Kd) was > 0.4 µM and ≤ 1 µM.

B5: the Kd is no more than 0.4 µM.

In the case of B6, the dissociation constant Kd was > 0.4 µM and ≤ 1 µM.

Take B7: the Kd was > 0.4 µM and ≤ 1 µM.

As to B8, the Kd was > 0.4 µM and ≤ 1 µM.

With B9, the dissociation constant (Kd) is no more than 0.4 µM.

Regarding B10, the Kd was > 0.4 µM and ≤ 1 µM.

For the molecule B11, the dissociation constant Kd is > 0.4 µM and ≤ 1 µM.

Consider B12, for which the equilibrium dissociation constant (Kd) is > 10 µM and ≤ 30 µM.

B13: the Kd was > 0.4 µM and ≤ 1 µM.

With B14, the Kd is no more than 0.4 µM.

On to B15, for which the Kd is > 0.4 µM and ≤ 1 µM.

As for B16, the Kd was > 0.4 µM and ≤ 1 µM.

Consider B17, for which the dissociation constant Kd is > 0.4 µM and ≤ 1 µM.

Turning to B18, the Kd is > 0.4 µM and ≤ 1 µM.

On to B19, for which the Kd is > 10 µM and ≤ 30 µM.

(Values after patent US20260098059A1 (ENDOMET BIOSCIENCES, published 2026).)
